± gives the uncertainty stated by the source.
B1: WW domain-binding protein 4, residues 8 to 43; numbered along this chain, O75554 (parent)
chain: QPKKFCDYCKCWIADNRPSVEFHERGKNHKENVAKR

Variants of: B1
Test: abundance fitness (aPCA) (normalised: wild type 0, dead -1); higher = more abundant; growth selection in yeast, the domain comes from the species named
Conditions: Homo sapiens

Variant | abundance fitness
QPKKFCDYCKCWIADNRPSVEFHERGKNHKNNVAKR | -0.346 ± 0.23
QPKKFCDYCKCWIADNRPSVEFHERGKNHKLNVAKR | -0.229 ± 0.071
QPKKFCDYCKCWIADNRPSVEFHERGKNHKTNVAKR | -0.259 ± 0.12
QPKKFCDYCKCWIADNRPSVEFHERGKNHKGNVAKR | -0.153 ± 0.071
QPKKFCDYCKCWIADNRPSVEFHERGKNHKPNVAKR | -0.332 ± 0.087
QPKKFCDYCKCWIADNRPSVEFHERGKNHKANVAKR | 0.01 ± 0.068
QPKKFCDYCKCWIADNRPSVEFHERGKNHKMNVAKR | -0.065 ± 0.11
QPKKFCDYCKCWIADNRPSVEFHERGKNHKSNVAKR | -0.326 ± 0.13
QPKKFCDYCKCWIADNRPSVEFHERGKNHKQNVAKR | -0.072 ± 0.14
QPKKFCDYCKCWIADNRPSVEFHERGKNHKHNVAKR | -0.29 ± 0.2
QPKKFCDYCKCWIADNRPSVEFHERGKNHKRNVAKR | -0.103 ± 0.063
QPKKFCDYCKCWIADNRPSVEFHERGKNHKDNVAKR | -0.093 ± 0.32
QPKKFCDYCKCWIADNRPSVEFHERGKNHKKNVAKR | -0.107 ± 0.09
QPKKFCDYCKCWIADNRPSVEFHERGKNHKVNVAKR | -0.11 ± 0.086
QPKKFCDYCKCWIADNRPSVEFHERGKNHKCNVAKR | -0.302 ± 0.18
QPKKFCDYCKCWIADNRPSVEFHERGKNHKWNVAKR | -0.955 ± 0.1
QPKKFCDYCKCWIADNRPSVEFHTRGKNHKENVAKR | -0.549 ± 0.21
QPKKFCDYCKCWIADNRPSVEFHWRGKNHKENVAKR | -0.413 ± 0.079
QPKKFCDYCKCWIADNRPSVEFHYRGKNHKENVAKR | -0.183 ± 0.21
QPKKFCDYCKCWIADNRPSVEFHRRGKNHKENVAKR | -0.497 ± 0.06
QPKKFCDYCKCWIADNRPSVEFHSRGKNHKENVAKR | -0.232 ± 0.078
QPKKFCDYCKCWIADNRPSVEFHERGKNHKEWVAKR | -0.115 ± 0.079
QPKKFCDYCKCWIADNRPSVEFHERGKNHKEMVAKR | -0.228 ± 0.14

Variant | abundance fitness
QPKKFCDYCKCWIADNRPSVEFHERGKNHKEHVAKR | -0.172 ± 0.11
QPKKFCDYCKCWIADNRPSVEFHERGKNHKEDVAKR | -0.49 ± 0.23
QPKKFCDYCKCWIADNRPSVEFHERGKNHKECVAKR | -0.158 ± 0.1
QPKKFCDYCKCWIADNRPSVEFHERGKNHKERVAKR | -0.1 ± 0.084
QPKKFCDYCKCWIADNRPSVEFHERGKNHKELVAKR | -0.166 ± 0.087
QPKKFCDYCKCWIADNRPSVEFHERGKNHKEYVAKR | -0.289 ± 0.14
QPKKFCDYCKCWIADNRPSVEFHERGKNHKEPVAKR | -0.473 ± 0.32
QPKKFCDYCKCWIADNRPSVEFHERGKNHKETVAKR | -0.142 ± 0.13
QPKKFCDYCKCWIADNRPSVEFHERGKNHKEFVAKR | -0.405 ± 0.17
QPKKFCDYCKCWIADNRPSVEFHERGKNHKEVVAKR | -0.294 ± 0.075
QPKKFCDYCKCWIADNRPSVEFHERGKNHKESVAKR | -0.086 ± 0.075
QPKKFCDYCKCWIADNRPSVEFHERGKNHKEIVAKR | -0.446 ± 0.23
QPKKFCDYCKCWIADNRPSVEFHERGKNHKEQVAKR | 0.035 ± 0.1
QPKKFCDYCKCWIADNRPSVEFHERGKNHKEKVAKR | -0.111 ± 0.11
QPKKFCDYCKCWIADNRPSVEFHERGKNHKEAVAKR | 0.038 ± 0.08
QPKKFCDYCKCWIADNRPSVEFHERGKNHGENVAKR | -0.019 ± 0.057
QPKKFCDYCKCWIADNRPSVEFHERGKNHEENVAKR | 0.053 ± 0.07
QPKKFCDYCKCWIADNRPSVEFHERGKNHPENVAKR | -0.246 ± 0.097
QPKKFCDYCKCWIADNRPSVEFHERGKNHCENVAKR | 0.022 ± 0.083
QPKKFCDYCKCWIADNRPSVEFHERGKNHAENVAKR | -0.101 ± 0.069
QPKKFCDYCKCWIADNRPSVEFHERGKNHTENVAKR | 0.201 ± 0.099
QPKKFCDYCKCWIADNRPSVEFHERGKNHMENVAKR | -0.177 ± 0.14
QPKKFCDYCKCWIADNRPSVEFHERGKNHIENVAKR | 0.085 ± 0.084

Variant | abundance fitness
QPKKFCDYCKCWIADNRPSVEFHERGKNHSENVAKR | -0.117 ± 0.069
QPKKFCDYCKCWIADNRPSVEFHERGKNHLENVAKR | -0.061 ± 0.061
QPKKFCDYCKCWIADNRPSVEFHERGKNHQENVAKR | -0.02 ± 0.079
QPKKFCDYCKCWIADNRPSVEFHERGKNHDENVAKR | -0.265 ± 0.12
QPKKFCDYCKCWIADNRPSVEFHERGKNHVENVAKR | -0.036 ± 0.07
QPKKFCDYCKCWIADNRPSVEFHERGKNHYENVAKR | -0.391 ± 0.15
QPKKFCDYCKCWIADNRPSVEFHERGKNHWENVAKR | -0.345 ± 0.071
QPKKFCDYCKCWIADNRPSVEFHERGKNHRENVAKR | 0.049 ± 0.078
QPKKFCDYCKCWIADNRPSVEFHERGKNHKENFAKR | -0.182 ± 0.14
QPKKFCDYCKCWIADNRPSVEFHERGKNHKENIAKR | -0.404 ± 0.23
QPKKFCDYCKCWIADNRPSVEFHERGKNHKENKAKR | -0.278 ± 0.076
QPKKFCDYCKCWIADNRPSVEFHERGKNHKENEAKR | 0.022 ± 0.12
QPKKFCDYCKCWIADNRPSVEFHERGKNHKENPAKR | -0.315 ± 0.1
QPKKFCDYCKCWIADNRPSVEFHERGKNHKENLAKR | -0.205 ± 0.075
QPKKFCDYCKCWIADNRPSVEFHERGKNHKENGAKR | -0.22 ± 0.058
QPKKFCDYCKCWIADNRPSVEFHERGKNHKENAAKR | -0.006 ± 0.079
QPKKFCDYCKCWIADNRPSVEFHERGKNHKENDAKR | -0.22 ± 0.098
QPKKFCDYCKCWIADNRPSVEFHERGKNHKENNAKR | -0.572 ± 0.24
QPKKFCDYCKCWIADNRPSVEFHERGKNHKENMAKR | -0.074 ± 0.34
QPKKFCDYCKCWIADNRPSVEFHERDKNHKENVAKR | 0.015 ± 0.13
QPKKFCDYCKCWIADNRPSVEFHERRKNHKENVAKR | -0.228 ± 0.059
QPKKFCDYCKCWIADNRPSVEFHERSKNHKENVAKR | 0.04 ± 0.067

— the Human Domainome abundance scans (Beltran et al. 2025)
